Patent US5858973

Target: IDX-1 (IDX-1/pBJ5 expressed in NIH-3T3) (Rattus norvegicus) (UniProt P52947)
Assay: cell_activity

Chain of IDX-1 (IDX-1/pBJ5 expressed in NIH-3T3) (Rattus norvegicus) (P52947 other isoform, or with tags, fused parts or gaps): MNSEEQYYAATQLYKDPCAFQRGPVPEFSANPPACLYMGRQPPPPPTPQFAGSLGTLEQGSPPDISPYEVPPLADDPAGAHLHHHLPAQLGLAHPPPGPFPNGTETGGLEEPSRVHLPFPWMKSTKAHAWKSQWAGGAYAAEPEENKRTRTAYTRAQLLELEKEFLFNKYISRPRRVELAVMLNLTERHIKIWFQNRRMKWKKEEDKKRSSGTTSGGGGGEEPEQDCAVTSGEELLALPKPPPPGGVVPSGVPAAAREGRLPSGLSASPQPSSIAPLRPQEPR

| Substance | activity (CAT reporter in NIH-3T3) [fold] | activity (parent TKCAT not activated) [fold] |
| --- | --- | --- |
| SMS900CAT promoter (-900 to +54) | 4 | – |
| SMS900(delta-250/-120)CAT promoter | 5 | – |
| SMS(-900/-250)TKCAT | – | 4 |
